In publication PMC5861430 (Nucleic Acids Research, 2018):

B1: WT His-tagged PCNA (natural protein, Xenopus laevis, UniProt P18248 1-261, looked up)
chain: MFEARLVQGSILKKVLEALKDLIDEACWDITSSGISLQSMDSSHVSLVQLTLRSDGFDTYRCDRNQSIGVKMSSMSKILKCAASDDIITLRAEDNADTVTMVFESPNQEKVSDYEMKLMDLDVEQLGIPEQEYSCVIKMPSGEFARICRDLSQIGDAVVISCAKDGVKFSASGELGTGNVKLSQTSNVDKEEEAVTIEMNEPVQLTFALRYLNFFTKATPLSPTVILSMSADIPLVVEYKIADMEHVKYYLAPKIEDEEAS

Key:
Test in all cases: pull-down
GST-APE2 = target: T1, GST-APE2 (Xenopus laevis, UniProt Q6DDT4 1-517)
T1 sequence (looked up): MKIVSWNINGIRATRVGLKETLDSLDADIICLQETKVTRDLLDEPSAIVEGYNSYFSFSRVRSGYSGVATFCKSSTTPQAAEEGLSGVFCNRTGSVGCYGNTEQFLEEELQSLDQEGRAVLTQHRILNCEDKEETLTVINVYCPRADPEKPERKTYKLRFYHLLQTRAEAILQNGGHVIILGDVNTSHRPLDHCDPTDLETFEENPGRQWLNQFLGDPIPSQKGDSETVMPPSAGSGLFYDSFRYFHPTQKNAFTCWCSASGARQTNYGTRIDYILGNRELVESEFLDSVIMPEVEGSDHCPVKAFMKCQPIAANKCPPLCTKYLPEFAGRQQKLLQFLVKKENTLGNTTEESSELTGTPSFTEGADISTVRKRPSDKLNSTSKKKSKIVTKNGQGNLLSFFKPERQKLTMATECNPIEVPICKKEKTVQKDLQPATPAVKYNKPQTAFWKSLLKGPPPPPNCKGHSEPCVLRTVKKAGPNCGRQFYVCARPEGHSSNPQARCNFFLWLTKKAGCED

WT His-tagged PCNA = target: B1
[1] = target: PK PCNA (P253A-K254A PCNA) (Xenopus laevis, UniProt P18248 1-261, P253A | K254A)

Row | Binder | binding result (GST-APE2) | binding result (WT His-tagged PCNA) | binding result [1]
1 | B1 | binds |  | 
2 | GST-APE2-ZF (domain or fragment, Xenopus laevis, UniProt Q6DDT4 456-517, looked up) GPPPPPNCKGHSEPCVLRTVKKAGPNCGRQFYVCARPEGHSSNPQARCNFFLWLTKKAGCED |  | binds | binds
